Laboratory results from patent US20140037547A1 (UNIVERSITY OF VERMONT AND STATE AGRICULTURAL COLLEGE, published 2014).

Columns and labels:
[1] = target: T1, wild-type PKG Iα (cGMP-dependent protein kinase type Iα, full length) (UniProt P00516 2-671); test: cell-based or functional assay
T1 sequence (looked up): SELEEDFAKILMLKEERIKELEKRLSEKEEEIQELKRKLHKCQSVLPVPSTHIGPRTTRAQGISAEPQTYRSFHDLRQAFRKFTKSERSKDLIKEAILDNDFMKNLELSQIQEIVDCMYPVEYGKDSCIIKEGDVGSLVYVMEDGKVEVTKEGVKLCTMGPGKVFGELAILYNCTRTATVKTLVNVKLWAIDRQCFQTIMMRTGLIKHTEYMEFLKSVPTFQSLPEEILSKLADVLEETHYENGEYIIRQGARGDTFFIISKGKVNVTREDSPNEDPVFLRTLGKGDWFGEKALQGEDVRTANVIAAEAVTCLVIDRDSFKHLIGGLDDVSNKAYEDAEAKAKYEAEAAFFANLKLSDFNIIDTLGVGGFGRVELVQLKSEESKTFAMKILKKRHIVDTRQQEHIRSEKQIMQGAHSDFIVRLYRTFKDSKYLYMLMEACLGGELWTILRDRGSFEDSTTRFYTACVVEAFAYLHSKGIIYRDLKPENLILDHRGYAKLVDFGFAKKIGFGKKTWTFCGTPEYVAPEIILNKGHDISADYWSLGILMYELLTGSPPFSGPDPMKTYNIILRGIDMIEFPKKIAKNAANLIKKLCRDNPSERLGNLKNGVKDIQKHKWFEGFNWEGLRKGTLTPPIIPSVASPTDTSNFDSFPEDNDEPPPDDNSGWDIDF

[2] = target: T2, SW:329-349
T2 chain: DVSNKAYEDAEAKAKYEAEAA

[3] = target: T3, SW:329-358
T3 chain: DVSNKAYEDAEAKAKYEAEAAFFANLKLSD

B1: SW:348-355 AAFFANLK (peptide)
peptide: AAFFANLK
[1]
  Ka (activation of PKG): 500 µM
  activation relative to activation associated with cGMP: 30%

B2: SW:329-355 (peptide)
peptide: DVSNKAYEDAEAKAKYEAEAAFFANLK
[1]
  Ka (activation of PKG Iα, cGMP priming conditions): 500 µM

B3: SW:329-358 (peptide)
peptide: DVSNKAYEDAEAKAKYEAEAAFFANLKLSD
[1]
  Ka (activation of PKG Iα, kinase primed with 100 nM cGMP): 40 µM
  shift of the activation profile on priming with 100 nM cGMP: 20 fold

B4: wild-type PKG Iα (cGMP-dependent protein kinase type Iα, full length) (protein)
chain: SELEEDFAKILMLKEERIKELEKRLSEKEEEIQELKRKLHKCQSVLPVPSTHIGPRTTRAQGISAEPQTYRSFHDLRQAFRKFTKSERSKDLIKEAILDNDFMKNLELSQIQEIVDCMYPVEYGKDSCIIKEGDVGSLVYVMEDGKVEVTKEGVKLCTMGPGKVFGELAILYNCTRTATVKTLVNVKLWAIDRQCFQTIMMRTGLIKHTEYMEFLKSVPTFQSLPEEILSKLADVLEETHYENGEYIIRQGARGDTFFIISKGKVNVTREDSPNEDPVFLRTLGKGDWFGEKALQGEDVRTANVIAAEAVTCLVIDRDSFKHLIGGLDDVSNKAYEDAEAKAKYEAEAAFFANLKLSDFNIIDTLGVGGFGRVELVQLKSEESKTFAMKILKKRHIVDTRQQEHIRSEKQIMQGAHSDFIVRLYRTFKDSKYLYMLMEACLGGELWTILRDRGSFEDSTTRFYTACVVEAFAYLHSKGIIYRDLKPENLILDHRGYAKLVDFGFAKKIGFGKKTWTFCGTPEYVAPEIILNKGHDISADYWSLGILMYELLTGSPPFSGPDPMKTYNIILRGIDMIEFPKKIAKNAANLIKKLCRDNPSERLGNLKNGVKDIQKHKWFEGFNWEGLRKGTLTPPIIPSVASPTDTSNFDSFPEDNDEPPPDDNSGWDIDF
[2]
  activation of PKG Iα (32P-incorporation assay, cGMP priming conditions): rendered a completely inactive SW-peptide derivative
[3]
  Ka (activation of PKG Iα, 32P-incorporation assay): Ka=500 µM
